This note sets out measurements from article PMC4434323.

For series [1], the target named is T1, hlh-12 (C28C12.8) (Caenorhabditis elegans) (UniProt Q18277).
T1 sequence: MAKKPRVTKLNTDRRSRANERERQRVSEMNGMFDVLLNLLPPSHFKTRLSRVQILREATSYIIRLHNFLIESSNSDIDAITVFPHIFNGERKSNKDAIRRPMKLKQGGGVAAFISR

The target of series [2] is T2, skn-1 (T19E7.2) (Caenorhabditis elegans) (UniProt P34707).
T2 sequence: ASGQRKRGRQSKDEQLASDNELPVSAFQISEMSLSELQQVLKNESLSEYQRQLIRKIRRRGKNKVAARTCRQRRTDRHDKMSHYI

The target of series [3] is T3, mbr-1 (T01C1.2) (Caenorhabditis elegans) (UniProt G5EGQ5).
T3 sequence: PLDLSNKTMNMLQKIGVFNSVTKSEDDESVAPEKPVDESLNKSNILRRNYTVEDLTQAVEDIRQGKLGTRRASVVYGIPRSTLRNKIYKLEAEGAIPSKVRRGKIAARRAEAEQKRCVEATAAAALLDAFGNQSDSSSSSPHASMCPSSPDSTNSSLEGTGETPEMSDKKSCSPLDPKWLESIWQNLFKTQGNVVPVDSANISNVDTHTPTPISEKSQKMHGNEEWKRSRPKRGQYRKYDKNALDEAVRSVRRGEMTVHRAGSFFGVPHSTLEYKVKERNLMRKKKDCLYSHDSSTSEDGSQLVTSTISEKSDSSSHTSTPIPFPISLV

For “AACAGATG (double strand) [8-mer AACAGATG]”, in series [1], the binding signal (PBM E-score (-0.5 to 0.5)) amounted to 0.468. Sequence “AACAGCTG (double strand) [8-mer AACAGCTG]” returned a binding signal (PBM E-score (-0.5 to 0.5)) in series [1] of 0.481.

For the sequence “AACATATG (double strand) [8-mer AACATATG]”, the binding signal (PBM E-score (-0.5 to 0.5)) in series [1] stood at 0.465. Turning to “AACATCTG (double strand) [8-mer AACATCTG]”, the binding signal (PBM E-score (-0.5 to 0.5)) in series [1] was 0.481. “AATGTCAT (double strand) [8-mer AATGTCAT]”: the binding signal (PBM E-score (-0.5 to 0.5)) in series [2] worked out at 0.487. In series [1], “ACAGATGG (double strand) [8-mer ACAGATGG]” yielded a binding signal (PBM E-score (-0.5 to 0.5)) of 0.478. On the same count and under the same terms, as for “ACAGATGT (double strand) [8-mer ACAGATGT]”, the figure is 0.478. Still for that read-out and setting: the result for “ACAGCTGG (double strand) [8-mer ACAGCTGG]” reads 0.481. “ACAGCTGT (double strand) [8-mer ACAGCTGT]”: the binding signal (PBM E-score (-0.5 to 0.5)) in series [1] was 0.496.

With “ACATATGT (double strand) [8-mer ACATATGT]”, the binding signal (PBM E-score (-0.5 to 0.5)) in series [1] is 0.476. Consider “ACATCTGG (double strand) [8-mer ACATCTGG]”, for which the binding signal (PBM E-score (-0.5 to 0.5)) in series [1] stood at 0.481.

In turn, “ACCAGCTG (double strand) [8-mer ACCAGCTG]” had a binding signal (PBM E-score (-0.5 to 0.5)) in series [1] of 0.456. Same read-out and setting: the result for “ACCATCTG (double strand) [8-mer ACCATCTG]” reads 0.482.

In series [2], “AGGATGAC (double strand) [8-mer AGGATGAC]” had a binding signal (PBM E-score (-0.5 to 0.5)) of 0.489. Still for that read-out and setting: as for “AGTCATCA (double strand) [8-mer AGTCATCA]”, the figure is 0.491. Same read-out and setting: the result for “ATATCATC (double strand) [8-mer ATATCATC]” reads 0.485; that for “ATGACAAA (double strand) [8-mer ATGACAAA]”, 0.493; that for “ATGACAAT (double strand) [8-mer ATGACAAT]”, 0.495. In turn, “ATGATGAC (double strand) [8-mer ATGATGAC]” came in with a binding signal (PBM E-score (-0.5 to 0.5)) in series [2] of 0.497. Still for that read-out and setting: the result for “ATGTCATC (double strand) [8-mer ATGTCATC]” reads 0.494. In turn, “CACAGCTG (double strand) [8-mer CACAGCTG]” had a binding signal (PBM E-score (-0.5 to 0.5)) in series [1] of 0.475. The same measure, in the same setting: as for “CAGCTGTC (double strand) [8-mer CAGCTGTC]”, the figure is 0.479.

In turn, “CGGGGGGC (double strand) [8-mer CGGGGGGC]” showed a binding signal (PBM E-score (-0.5 to 0.5)) in series [3] of 0.487. Still for that read-out and setting: the result for “GAGGGGCC (double strand) [8-mer GAGGGGCC]” reads 0.489.

In turn, “GATGACAA (double strand) [8-mer GATGACAA]” returned a binding signal (PBM E-score (-0.5 to 0.5)) in series [2] of 0.498.

In series [2], “GATGACTA (double strand) [8-mer GATGACTA]” displayed a binding signal (PBM E-score (-0.5 to 0.5)) of 0.489. In series [2], “GATGATAA (double strand) [8-mer GATGATAA]” registered a binding signal (PBM E-score (-0.5 to 0.5)) of 0.488.

“GCCCCCCA (double strand) [8-mer GCCCCCCA]” registered a binding signal (PBM E-score (-0.5 to 0.5)) in series [3] of 0.487. In series [2], “GGATGACA (double strand) [8-mer GGATGACA]” showed a binding signal (PBM E-score (-0.5 to 0.5)) of 0.489.

Regarding “GGCCCCCC (double strand) [8-mer GGCCCCCC]”, the binding signal (PBM E-score (-0.5 to 0.5)) in series [3] amounted to 0.498. In series [3], “GGGGCCAA (double strand) [8-mer GGGGCCAA]” came in with a binding signal (PBM E-score (-0.5 to 0.5)) of 0.488.

“GGGGCCTA (double strand) [8-mer GGGGCCTA]” returned a binding signal (PBM E-score (-0.5 to 0.5)) in series [3] of 0.487. Still for that read-out and setting: as for “GGGGGCCA (double strand) [8-mer GGGGGCCA]”, the figure is 0.495.

Sequence “GTCATCAC (double strand) [8-mer GTCATCAC]” came in with a binding signal (PBM E-score (-0.5 to 0.5)) in series [2] of 0.492. Same read-out and setting: as for “TGATGACA (double strand) [8-mer TGATGACA]”, the figure is 0.495.
